The values below come from PMC11078757, “Ligand efficacy modulates conformational dynamics of the µ-opioid receptor” (Nature, 2024).

This assay addresses T1, Gi1 heterotrimer (human Gαi1, Gβ1, Gγ2) (human, UniProt P63096 1-354; P62873 1-340; P59768 1-71).
T1 construct: Gαi1, human; Gβ1, human; Gγ2, cloned together with human Gβ1 in pFastBac Dual; Treated with λ protein phosphatase; Purified with 10 µM GDP; made nucleotide-free in the assay with apyrase where said; Residues of the 3C site may be left on Gβ1 after cleavage; also called G protein; source: Hi5 cells, baculovirus co-infection, purified (Ni-NTA, MonoQ; also SEC for DEER samples); not shown: His6, …
The experiment in a line: single-molecule FRET within the labelled receptor (TIRFM); 20 nM µOR–Cy3/Cy5 with 100 µM ligand incubated with 20 µM Gi1, then apyrase (nucleotide-free); complex immobilised via Flag tag, biotinylated M1 Fab and streptavidin; 25 °C, LMNG/CHS micelles, 100 ms frames. Conditions: both partners purified.

B1: µOR∆7(R182C/R273C) labelled with iodoacetamide-conjugated Cy3 and Cy5 (receptor)
chain: GPGNISDSSDPLAPASSSPAPGSWLNLSHVDGNQSDPSGPNRTGLGGSHSLSPQTGSPSMVTAITIMALYSIVCVVGLFGNFLVMYVIVRYTKMKTATNIYIFNLALADALATSTLPFQSVNYLMGTWPFGNILCKIVISIDYYNMFTSIFTLCTMSVDRYIAVTHPVKALDFRTPCNAKIVNVCNWILSSAIGLPVMFMATTKYRQGSIDCTLTFSHPTWYWENLLKICVFIFAFIMPVLIITVCYGLMILRLKSVRMLSGSKEKDCNLRRITRMVLVVVAVFIVCWTPIHIYVIIKALITIPETTFQTVSWHFCIALGYTNSCLNPVLYAFLDENFKRAFREFLIPTSSTIEQQNSARIRQNTREHPSTANTVDRTNHQLENLEAETAPLP
modifications: iodoacetamide-conjugated Cy3 and Cy5 on the introduced cysteines 182 and 273
notes: µ-opioid receptor, Mus musculus, residues 6-398, minimal-cysteine construct µOR∆7 with two introduced labelling cysteines; Tethered to the cover slip via its Flag tag, biotinylated M1 Fab and streptavidin; also called µOR–Cy3/Cy5; source: Sf9 insect cells, baculovirus, purified (Ni-NTA, anti-Flag M1 resin, SEC) in LMNG/CHS micelles; not shown: Flag, N-terminal, kept
As to B1, the binding result was “binds”.
